Measurements taken from the supplement of paper PMC11865577.

Each sequence was assayed on TO-N3 (biotin conjugate) (assay: pull-down binding Z-score (relative to library population); higher = stronger binding). Details: RNA library: Library-2.
Outline: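 Biotin-conjugated small molecule (100 pmol) on streptavidin beads was incubated with 1 μg of heat-folded Cy5- or Cy3-end-labelled RNA library in phosphate/NaCl/KCl buffer at 25 °C for 60 min. Following three washes, RNA was eluted with hot SDS and hybridised at 55.5 °C for 20 h to a DNA barcode microarray. The binding value is a Z-score computed from the library mean and standard deviation, after subtraction of beads without compound and averaging of barcoded replicate probes with the highest and lowest excluded.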

Sequence | pull-down binding Z-score
UCUUAAGAGAGGUGAUAAAAGUGUAUAUUACACUAGUAAUCCUACCACAUUCCACCUAGAUGGUGAAGUUAUCACCUUUGACAAUCUUAAGA | 0.528
UCUUCAGGUUGGACAGCUGGUGCUGCAGCUUAUUAUGUGGGUUAUCUUCAACCUAGGA [DMSMaPseq_invitro_SARS-CoV-2_Multi_66_ComplexLevel_1] | 0.0485
UCUUGCCGAAUACCAUAAUGAAUCUGGCUUGA [SHAPE_invivo_SARS-CoV-2_Motif_27] | -0.631
UCUUUAAGGAAGGAAGUUCUGUUGAAUUAAAACACUUCUUCUUUGCUCAGGA [DMSMaPseq_invitro_SARS-CoV-2_Motif_265] | -1.23
UCUUUAUUUGACAUGAGUAAAUUUCCCCUUAAAUUAAGGGGUACUGCUGUUAUGUCUUUAAAAGA [SHAPE_invitro_SARS-CoV-2_Motif_387] | -0.894
UCUUUCAUGGGA [DMSMaPseq_invitro_SARS-CoV-2_Motif_300] | 0.363
UGAACCACAAAUCA [SHAPE_invitro_SARS-CoV-2_Motif_451] | -1.04
UGAAGUAUUUUGUGAAAAUAGGACCUGAGCGCACCUGUUGUCUAUGUGAUAGACGUGCCACAUGCUUUUCCACUGCUUCA [SHAPE_invitro_SARS-CoV-2_Motif_342] | -0.477
UGAAUUAGACUCAUUCA [DMSMaPseq_invitro_SARS-CoV-2_Motif_447] | -0.643
UGACAUGACUCUUGAGGAAAUGUCA [IAV_invivo_NS1_NEP_8_Motif_7+IAV_invivo_NS1_NEP_8_Motif_7] | -0.87
UGACAUUACACCAUGUUCUUUUGGUGGUGUCA | -1.29
UGACCAGUCUUCUUACAUCGUUGAUAGUGUUACAGUGAAGAAUGGUUCCAUCCAUCUUUACUUUGAUAAAGCUGGUCA | -0.675
UGACGAUGCUGUUGUGUGUUUCAAUAGCACUUAUGCAUCUCA [SHAPE_invitro_SARS-CoV-2_Motif_289] | 1.01
UGAGUACUGUAGGCACGGCACUUGUGAAAGAUCAGAAGCUGGUGUUUGUGUAUCUACUAGUGGUAGAUGGGUACUUA [DMSMaPseq_invitro_SARS-CoV-2_Multi_29_ComplexLevel_1] | 0.0497
UGAGUGUGACAUACCCAUUGGUGCAGGUAUAUGCGCUAGUUAUCAGACUCA | 0.865
UGAUAAAUUCA [SHAPE_invivo_SARS-CoV-2_Motif_325] | -0.712
UGAUAGUCAACAAACUGUUGGUCAACAAGACGGCAGUGAGGACAAUCA | 0.595
UGAUGCAGCCAUGCAACGUAAGUUGGAAAAGAUGGCUGAUCA | -1.16
UGAUGCGUAUUAUGACAUGGUUGGAUAUGGUUGAUACUAGUUUGUCUGGUUUUAAGCUAAAAGACUGUGUUAUGUAUGCAUCA | -0.861
UGAUGGUGUUCCAUUUGUAGUUUCAACUGGAUACCACUUCA [DMSMaPseq_invitro_SARS-CoV-2_Motif_261] | -0.387
UGAUGUCACAGAUGUGACUCA | -1.09
UGAUGUUUGUCA | -0.762
UGAUUUUUGUGGAAAGGGCUAUCAUCUUAUGUCCUUCCCUCAGUCA [SHAPE_invivo_SARS-CoV-2_Motif_462] | -0.702

Sequence | pull-down binding Z-score
UGCAACGAUACCGAUACAAGCCUCACUCCCUUUCGGAUGGCUUAUUGUUGGCGUUGCA | -0.366
UGCAAGAGAUGGUUGUGUUCCCUUGAACAUAAUACCUCUUACA [DMSMaPseq_invitro_SARS-CoV-2_Motif_219] | -1.01
UGCACUUGACCCUCUCUCAGAAACAAAGUGUA | 0.625
UGCAGAUUCAACUUUGAUUGGUGAUUGUGCA | 0.273
UGCAGAUUUGGAUGAUUUCUCCAAACAAUUGCA | -0.0544
UGCAGCAGAAACGCUCA [SHAPE_invitro_SARS-CoV-2_Motif_303] | 0.371
UGCAUUUCUUACCUAGAGUUUUUAGUGCA [DMSMaPseq_invitro_SARS-CoV-2_Motif_163] | -1.09
UGCCAUUUGUCAUGAUGGAAAAGCACACUUUCCUCGUGAAGGUGUCUUUGUUUCAAAUGGCA [SHAPE_invivo_SARS-CoV-2_Motif_465] | -0.0789
UGCCGACUACUAUAGCAAAGAAUACUGUUAAGAGUGUCGGUA | -0.385
UGCCUUCAAACUCAACAUUAAAUUGUUGGGUGUUGGUGGCA | -0.909
UGCGAGAAAUGCUUGCA [SHAPE_invitro_SARS-CoV-2_Motif_85] | 0.918
UGCUAACUAAGGGCA | 0.627
UGCUCAAGAAGCUUAUGAGCA [SHAPE_invivo_SARS-CoV-2_Motif_229] | -0.253
UGCUGAGGCUUCUAAGAAGCCUCGGCA | -0.224
UGCUGUUGUUAAAAUUUAUUGUCCAGCA [SHAPE_invitro_SARS-CoV-2_Motif_28] | -0.582
UGCUUUCGUGGUA | 0.0358
UGCUUUGGUGUAAAGAUGGCCAUGUAGAAACAUUUUACCCAAAAUUACAAUCUAGUCAAGCGUGGCAACCGGGUGUUGCUAUGCCUAAUCUUUACAAAAUGCA | 0.0858
UGGAAUUGCAAUGUCGAUAGAUAUCCUGCUAAUUCCA | 0.0215
UGGAGGAAUACAAAUCCA [SHAPE_invitro_SARS-CoV-2_Motif_386] | 0.109
UGGAUGUAAUUAUCUUGGCAAACCACGCGAACAAAUAGAUGGUUAUGUCAUGCAUGCA | -0.682
UGGCAUGGAAGUCA [DMSMaPseq_invitro_SARS-CoV-2_Motif_525] | -0.262
UGGCAUUAAUGCUUCAGUUGUAAACAUUCAAAAAGAAAUUGACCGCCUCAAUGAGGUUGCCA | -1.1
UGGCCAUGGUACAUUUGGCUA | 0.286

Sequence | pull-down binding Z-score
UGGCCCCGAUUUCAGCUAUGGUUA [SHAPE_invitro_SARS-CoV-2_Motif_146] | -0.032
UGGCCGCAAAUUGCACAAUUUGCCCCCA [SHAPE_invitro_SARS-CoV-2_Motif_532] | -0.363
UGGGAUAUUGCCCG [IAV_invivo_PB2_1_Motif_20+IAV_invivo_PB2_1_Motif_20] | -0.0714
UGGGAUUAUCCUA [DMSMaPseq_invitro_SARS-CoV-2_Motif_276] | -0.106
UGGGCACACUUUCUUAUGAACAAUUUAAGAAAGGUGUUCA [SHAPE_invivo_SARS-CoV-2_Motif_116] | -0.52
UGGGGACCAGGAACUAAUCAGACAAGGAACUGAUUACAAACAUUGGCCGCAAAUUGCACAAUUUGCCCCCA | 0.312
UGGGGAGUUGAACCUA [IAV_invivo_PB2_1_Motif_19+IAV_invivo_PB2_1_Motif_19] | 0.376
UGGGGAUCACAACUCA [IAV_invivo_PB1_2_Motif_11+IAV_invivo_PB1_2_Motif_11] | 0.158
UGGGGCGCGAUCAAAACAACGUCGGCCCCA | 0.0437
UGGGGUUGGGGUUGGGGUUGGGGUUGGGGUUGGGGU [G4_r(UGGGGU)6] | 6.75
UGGGGUUGGGGUUGGGGUUGGGGUUGGGGUUGGGGUUGGGGUUGGGGU [G4_r(UGGGGU)8] | 6.59
UGGGUAGAAUUCGAUCUGUCUAUCCA | -0.686
UGGGUUACAUCCUACACAGGCACCUACACACCUCAGUGUUGACACUAAAUUCAAAACUGAAGGUUUAUGUGUUGACAUACCUGGCAUACCUAAGGACAUGACCUA | -0.257
UGGGUUAUCUUCAACCUA | -0.726
UGGGUUGGGUUGGGUUGGGUUGGGUUGGGU [G4_r(UGGGU)6] | 7.32
UGGGUUGGGUUGGGUUGGGUUGGGUUGGGUUGGGUUGGGU [G4_r(UGGGU)8] | 7.56
UGGUAAUGCUGCUAUCAGCGAUUAUGACUACUAUCGUUAUAAUCUACCA | -1.09
UGGUACUAUCUAUACAGAACUGGAACCA [SHAPE_invitro_SARS-CoV-2_Motif_233] | -0.445
UGGUACUGAAGAUGAUUACCA [SHAPE_invitro_SARS-CoV-2_Motif_57] | -0.278
UGGUAUUCUUGCUA | -0.551
UGGUGUUAGAAGGUCCUUUUAUGUCUAUGCUAAUGGAGGUAAAGGCUUUUGCAAACUA [SHAPE_invitro_SARS-CoV-2_Motif_149] | -0.58
UGGUUGGUUGGUUGGUUGGUUGGU [G4_r(UGGU)6] | 6.68
